Results reported in the nanobody polyreactivity screen of Harvey et al. (2022).

Experiment: yeast display, Sf9 membrane polyspecificity reagent, FACS + sequencing; frameworks hold sequencing errors
Outline: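 Sorting gates, low and high (top ~1%), were placed on anti-HA fluorescence to track expression and on streptavidin fluorescence to track reagent binding. A clone's polyreactivity label is taken from the gate it came out of. The reagent was 10% biotinylated, detergent-solubilized Sf9 membrane, applied for 1 hour at 4 °C to galactose-induced yeast display cells.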

Sequence | polyreactivity (PSR sort gate)
QVQIVESGGGLVQAGGSLRLSCDASGFTFFKYAMGWYRHAPGKERELVATISIDCITNYADSVKGRFTISRDNAKNTVYLQMNSLKPEDTAVYYCNARSLYQQLGYWGQGTQVTVSS | low polyreactivity
QVQLVESGAGLVQAGGSLRLSCAASGRTFVDNTMGLYTHAPGKERELVASISSGGSTYYADSVKGRFTISRDNAKNTVYLQMNRLKPEDTAVYDCATGDTLFVFYPDYEYWGQGTQVTVSS | low polyreactivity
QVQLVESGGGLVQAGGSLRLSCAASGRTFPYNAMGWYRQAPGKERELVAAITSSGSSTYYADSVKGRFTISRDNAKNTVYLQMNSLKPEDTAVYYCAADSYLIVGSSLVWQGYYYWGQGTQVTVSS | low polyreactivity
QVQLVESGGGLVQAGGSLRLSCAASGFIFTRYVMGWYRQAAGKERELVAAISRIGASTYYADSVKGRFTISRDNAKNNFYLQMNCLNPEATAVYYCKVVSGGYCEYDYWGHGTQVTVSS | high polyreactivity
QVQLVESGGVLVQAGGSLRLSCAASGFINLRYAMGWYRQAPGKERELVAAITSGGNTYYADSVKGRFTISRDNAKNTVSLQRNSLKQEDTAVYYCAAERFVITYPISRYYYWGQGTQVTVSS | low polyreactivity
QVQLVESGGGLVQAGGSLRLSCAASGSTFLPNAMGWYRQAPGKERELVAAISYRGGGTFYADSVKGRFTISRDNAKNTVYLQMNSLKPEDTAVYYCADDWSWFDNFDYWGQGTQVTVSS | low polyreactivity
QDQLVESAGGLVQAGGSRRLSCAASGFTFYRNAMGCYRQAPGKERELVAAISITGGRTYYADSVKGRFTISRDNAKNTVYLQMNSLIPEDTAVYYCAKDRQRYGGDFDYWGQGTQLTVSS | high polyreactivity
QVQLVESGGGLVQAGGSLRLSCAASGSTFLSNAMGWYRQAPGKERELVASINWIGGSTRYADSVKGRFTISRDNAKNTVYLQMNSLKPEDTAVYYCAVELWWKWPFYYWGQGTQVTVSS | high polyreactivity
QVQLVESGGGLVQAGGSIRLSCAASGRTFDSNAIGWYRQAAGKEWQLVAAISCSGDTTYDADTVKGRFTISRDNAKNTVYLQINILKPEDTAVYYCAADHDSYDSGYDYWGQGTQGTVSS | low polyreactivity
QVQLVESGGGLVQAGGSLRLSCAASGRTYGYAMGWYRQAPGKERELVARITWRGGSTSYADSVKGRFTISRDNAKNTVYLQMNSLKPEDTAVYYCAAGFYFPVYTYVRKRYYYWGQGTQVTVSS | high polyreactivity
QVQLVESGGGLVQAGGSLRLSCAASGSTFRSYTMVWYRQAPGKERELVADINGTGGSTYYADSVKGRFTISRDNAKNTVYLQMNSRKPEDTAVYNCAADGYFRTVTSGWALRMGYWGQGTQVTVSS | high polyreactivity
QVQLVESGGGLVQAGGSLRLSCAASGSIFWGYAMGWYRQAPGKERELVAAIRVSGGSTYYADSVKGRFTISRDNAKNTVYLQMNSLKPEDTAVYYCARDTWGGFSSADNYWGQGTQVTVSS | high polyreactivity
QVQLVESGGGLVQAGGSLRLSCAPSGSTFLDNAMGLYRQAPGKESELVAAISRGGSTNYADSVKWLFTSSRDNAKNTVYLQMNSLKPEDTAVYYCAARVNYASRYWYYIIRGTIDYYWGQGTQVTVSS | low polyreactivity
QVQLVESGGGLVQAGGSLRLSCAASGRTFSVNAMGWYRQAPGKEREFVAAISKSGGSTYYADSVKGRFTISRDNAKNTVYLQMNSLKPEDTAVYYCAADSNSVYPFDYWGQGTQVTVSS | high polyreactivity
QVQLVESGGGLVQAGGSLRLSCAASGLTYSNAMGCYRQAPGKERELVAAISWRGGRTYYADSVKGRFTISRDNAKNTVYLQMNSLKPEDTAVYYCAKYAHGHKWYGYWGQGNQVTVSS | low polyreactivity
QVQLVESGGGLVQAGGSLRLSCAASGFIFRYYAMGWYRQAPGKERELVAAISSGGGTTYADSVKGRFTISRDNAKNTVYLQMNSLKPEDTAVYYCAAVSYYARYTYGYDYWGQGTQVTVSS | high polyreactivity
QVQLVESGGGLVQAGGSLRLRCAASGRTFTYNAMVWYRQAPGKERELVPANNFSGVSTYYADSVKGRFTISRDNAKNTVYLQMNILKPEVTAVYYCAARGSARKSFPYPLEYWGQGTQVTVSS | high polyreactivity
